Here are results for one molecule from article PMC11254524 (Cell Insight, 2024).

The target of the experiment is GST-tagged AKT1 (UniProt P31749 1-480). In words: pull-down.
Sequence of GST-tagged AKT1 (P31749 whole entry): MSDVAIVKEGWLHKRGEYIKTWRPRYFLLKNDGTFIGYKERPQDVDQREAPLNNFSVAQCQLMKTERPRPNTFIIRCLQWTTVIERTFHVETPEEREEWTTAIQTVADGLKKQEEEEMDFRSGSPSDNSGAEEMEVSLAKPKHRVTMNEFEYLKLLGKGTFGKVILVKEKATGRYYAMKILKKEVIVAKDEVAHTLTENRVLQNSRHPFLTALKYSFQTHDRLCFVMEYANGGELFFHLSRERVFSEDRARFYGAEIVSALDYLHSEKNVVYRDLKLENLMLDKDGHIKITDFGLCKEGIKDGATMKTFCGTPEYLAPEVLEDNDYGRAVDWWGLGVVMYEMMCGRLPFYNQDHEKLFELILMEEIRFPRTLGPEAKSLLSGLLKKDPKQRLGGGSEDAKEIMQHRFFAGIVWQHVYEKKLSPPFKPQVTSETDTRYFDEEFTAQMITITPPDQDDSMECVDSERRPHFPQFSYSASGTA

B1: His-tagged SFN (natural protein, UniProt P31947 1-248, looked up)
chain: MERASLIQKAKLAEQAERYEDMAAFMKGAVEKGEELSCEERNLLSVAYKNVVGGQRAAWRVLSSIEQKSNEEGSEEKGPEVREYREKVETELQGVCDTVLGLLDSHLIKEAGDAESRVFYLKMKGDYYRYLAEVATGDDKKRIIDSARSAYQEAMDISKKEMPPTNPIRLGLALNFSVFHYEIANSPEEAISLAKTTFDEAMADLHTLSEDSYKDSTLIMQLLRDNLTLWTADNAGEEGGEAPQEPQS
As to B1, the binding result is on record as “binds”.
